The target in assay [1] is T1, FcγRIIa type R (human, UniProt P12318 34-217).
T1 chain: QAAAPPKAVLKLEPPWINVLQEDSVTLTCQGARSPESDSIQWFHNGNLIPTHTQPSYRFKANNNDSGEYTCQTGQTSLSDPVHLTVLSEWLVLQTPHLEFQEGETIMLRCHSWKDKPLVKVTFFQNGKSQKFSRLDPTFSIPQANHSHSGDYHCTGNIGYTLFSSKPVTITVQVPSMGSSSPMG
Briefly: SPR (Biacore), captured antibody, soluble FcγR.

Another assay deals with T2, FcγRIa (human, UniProt P12314 16-292).
T2 construct: Whole entry named; also called FcgRIa; CD64A
Briefly: SPR (Biacore), captured antibody, soluble FcγR.

The target in assay [2] is T3, FcγRIIb (human, UniProt P31994 43-217).
T3 construct: extracellular domain; also called FcgRIIb; CD32B
T3 sequence (looked up): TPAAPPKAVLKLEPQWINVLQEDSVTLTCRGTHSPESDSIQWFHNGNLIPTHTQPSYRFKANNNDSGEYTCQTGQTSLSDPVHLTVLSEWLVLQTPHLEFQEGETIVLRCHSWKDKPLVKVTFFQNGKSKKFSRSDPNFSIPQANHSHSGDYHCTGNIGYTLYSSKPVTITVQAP
Briefly: SPR (Biacore), captured antibody, soluble FcγR.

Assay [3] has as its target T1, FcγRIIa type R. Briefly: SPR (Biacore); parent = IL6R-B3/IL6R-L.
The target in assay [4] is T3, FcγRIIb. Briefly: SPR (Biacore); parent = IL6R-B3/IL6R-L.

T2 sequence (P12314 16-292): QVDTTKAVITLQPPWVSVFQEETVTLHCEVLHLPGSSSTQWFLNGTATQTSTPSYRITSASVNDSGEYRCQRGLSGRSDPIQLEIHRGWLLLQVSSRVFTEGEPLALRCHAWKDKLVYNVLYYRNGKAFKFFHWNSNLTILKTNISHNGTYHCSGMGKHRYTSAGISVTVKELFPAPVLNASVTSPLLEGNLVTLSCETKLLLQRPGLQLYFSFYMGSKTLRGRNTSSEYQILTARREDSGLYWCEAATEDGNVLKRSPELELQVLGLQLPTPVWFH

B1: IL6R-BP262/IL6R-L (antibody, human IgG1, kappa)
heavy: QVQLQESGPGLVKPSETLSLTCAVSGHSISHDHAWSWVRQPPGEGLEWIGFISYSGITNYNPSLQGRVTISRDNSKNTLYLQMNSLRAEDTAVYYCARSLARTTAMDYWGEGTLVTVSSASTKGPSVFPLAPSSKSTSGGTAALGCLVKDYFPEPVTVSWNSGALTSGVHTFPAVLQSSGLYSLSSVVTVPSSSLGTQTYICNVNHKPSNTKVDKKVEPKSCDKTHTCPPCPAPELLGDDSVFLFPPKPKDTLMISRTPEVTCVVVDVSEEDGEVKFNWYVDGVEVHNAKTKPREEQYNSTYRVVSVLTVLHQDWLNGKEYKCKVSNKALPAPIEKTISKAKGQPREPQVYTLPPSRDELTKNQVSLTCLVKGFYPSDIAVEWESNGQPENNYKTTPPVLDSDGSFFLYSKLTVDKSRWQQGNVFSCSVMHEALHNHYTQESLSLSP
light: not shown
notes: Alterations in EU numbering, introduced into IL6R-B3
Consider B1, for which the dissociation constant Kd worked out at 2000 nM with FcγRIIa type R [1], 10 nM with FcγRIa and 120 nM in the assay with FcγRIIb [2]. Further, the “KD(IIaR) of the parent polypeptide/KD(IIaR) of the altered polypeptide” value (“KD(IIaR)” for short) with FcγRIIa type R [3] is 0.5 fold. Besides, in the assay with FcγRIIb [4], the “KD(IIb) of the parent polypeptide/KD(IIb) of the altered polypeptide” value (shortened to “KD(IIb)”) turned out to be 25.8 fold.

B2: IL6R-BP445/IL6R-L (antibody, human IgG1, kappa)
heavy: QVQLQESGPGLVKPSETLSLTCAVSGHSISHDHAWSWVRQPPGEGLEWIGFISYSGITNYNPSLQGRVTISRDNSKNTLYLQMNSLRAEDTAVYYCARSLARTTAMDYWGEGTLVTVSSASTKGPSVFPLAPSSKSTSGGTAALGCLVKDYFPEPVTVSWNSGALTSGVHTFPAVLQSSGLYSLSSVVTVPSSSLGTQTYICNVNHKPSNTKVDKKVEPKSCDKTHTCPPCPAPDLLGDDSVFLFPPKPKDTLMISRTPEVTCVVIDVAEEDGEVKFNWYVDGVEVHNAKTKPREEQYNSTYRVVSVLTVLHQDWLNGKEYKCKVSNKALPRPIEKTISKAKGQPREPQVYTLPPSRDELTKNQVSLTCLVKGFYPSDIAVEWESNGQPENNYKTTPPVLDSDGSFFLYSKLTVDKSRWQQGNVFSCSVMHEALHNHYTQESLSLSP
light: not shown
notes: as for B1
With B2, the figures for the Kd with FcγRIIa type R [1], in the assay with FcγRIa and in the assay with FcγRIIb [2] were 80 nM, 2 nM and 2.6 nM, respectively. The “KD(IIaR)” value in the assay with FcγRIIa type R [3] came out at 13.8 fold. Further, the “KD(IIb)” value with FcγRIIb [4] came out at 1200 fold.

B3: IL6R-BP492/IL6R-L (antibody, human IgG1, kappa)
heavy: QVQLQESGPGLVKPSETLSLTCAVSGHSISHDHAWSWVRQPPGEGLEWIGFISYSGITNYNPSLQGRVTISRDNSKNTLYLQMNSLRAEDTAVYYCARSLARTTAMDYWGEGTLVTVSSASTKGPSVFPLAPSSKSTSGGTAALGCLVKDYFPEPVTVSWNSGALTSGVHTFPAVLQSSGLYSLSSVVTVPSSSLGTQTYICNVNHKPSNTKVDKKVEPKSCDKTHTCPPCPAPELLGGDSVFLFPPKPKDTLMISRTPEVTCVVIDVAEEDGEVKFNWYVDGVEVHNAKTKPREEQYNSTYRVVSVLTVLHQDWLNGKEYKCKVSNKALPAPIEKTISKAKGQPREPQVYTLPPSRDELTKNQVSLTCLVKGFYPSDIAVEWESNGQPENNYKTTPPVLDSDGSFFLYSKLTVDKSRWQQGNVFSCSVMHEALHNHYTQESLSLSP
light: not shown
notes: as for B1
On to B3, for which the Kd is 920 nM with FcγRIIa type R [1], 0.79 nM in the assay with FcγRIa and 24 nM with FcγRIIb [2]. Further, in the assay with FcγRIIa type R [3], the “KD(IIaR)” value came out at 1.2 fold. Moreover, the “KD(IIb)” value with FcγRIIb [4] amounted to 131 fold.

B4: IL6R-BP483/IL6R-L (antibody, human IgG1, kappa)
heavy: QVQLQESGPGLVKPSETLSLTCAVSGHSISHDHAWSWVRQPPGEGLEWIGFISYSGITNYNPSLQGRVTISRDNSKNTLYLQMNSLRAEDTAVYYCARSLARTTAMDYWGEGTLVTVSSASTKGPSVFPLAPSSKSTSGGTAALGCLVKDYFPEPVTVSWNSGALTSGVHTFPAVLQSSGLYSLSSVVTVPSSSLGTQTYICNVNHKPSNTKVDKKVEPKSCDKTHTCPPCPAPDLLGDDSVFLFPPKPKDTLMISRTPEVTCVVVDLAEEDGEVKFNWYVDGVEVHNAKTKPREEQYNSTYRVVSVLTVLHQDWLNGKEYKCKVSNKALPAPIEKTISKAKGQPREPQVYTLPPSRDELTKNQVSLTCLVKGFYPSDIAVEWESNGQPENNYKTTPPVLDSDGSFFLYSKLTVDKSRWQQGNVFSCSVMHEALHNHYTQESLSLSP
light: not shown
notes: as for B1
Consider B4, for which the results for the equilibrium dissociation constant (Kd) with FcγRIIa type R [1], with FcγRIa and with FcγRIIb [2] were 1300 nM, 1.3 nM and 78 nM, respectively. Also, the “KD(IIaR)” value with FcγRIIa type R [3] worked out at 0.8 fold. The “KD(IIb)” value with FcγRIIb [4] was 39.7 fold.

B5: IL6R-BP268/IL6R-L (antibody, human IgG1, kappa)
heavy: QVQLQESGPGLVKPSETLSLTCAVSGHSISHDHAWSWVRQPPGEGLEWIGFISYSGITNYNPSLQGRVTISRDNSKNTLYLQMNSLRAEDTAVYYCARSLARTTAMDYWGEGTLVTVSSASTKGPSVFPLAPSSKSTSGGTAALGCLVKDYFPEPVTVSWNSGALTSGVHTFPAVLQSSGLYSLSSVVTVPSSSLGTQTYICNVNHKPSNTKVDKKVEPKSCDKTHTCPPCPAPDLLGDDSVFLFPPKPKDTLMISRTPEVTCVVVDVSEEDGEVKFNWYVDGVEVHNAKTKPREEQDNSTYRVVSVLTVLHQDWLNGKEYKCKVSNKALPAPIEKTISKAKGQPREPQVYTLPPSRDELTKNQVSLTCLVKGFYPSDIAVEWESNGQPENNYKTTPPVLDSDGSFFLYSKLTVDKSRWQQGNVFSCSVMHEALHNHYTQESLSLSP
light: not shown
notes: as for B1
As to B5, the dissociation constant (Kd) is 1800 nM with FcγRIIa type R [1], 4.5 nM in the assay with FcγRIa and 92 nM in the assay with FcγRIIb [2]. In the assay with FcγRIIa type R [3], the “KD(IIaR)” value was found to be 0.6 fold. Also, the “KD(IIb)” value in the assay with FcγRIIb [4] came to 33.7 fold.

B6: IL6R-BP481/IL6R-L (antibody, human IgG1, kappa)
heavy: QVQLQESGPGLVKPSETLSLTCAVSGHSISHDHAWSWVRQPPGEGLEWIGFISYSGITNYNPSLQGRVTISRDNSKNTLYLQMNSLRAEDTAVYYCARSLARTTAMDYWGEGTLVTVSSASTKGPSVFPLAPSSKSTSGGTAALGCLVKDYFPEPVTVSWNSGALTSGVHTFPAVLQSSGLYSLSSVVTVPSSSLGTQTYICNVNHKPSNTKVDKKVEPKSCDKTHTCPPCPAPDLLGDDSVFLFPPKPKDTLMISRTPEVTCVVIDVAEEDGEVKFNWYVDGVEVHNAKTKPREEQYNSTYRVVSVLTVLHQDWLNGKEYKCKVSNKALPAPIEKTISKAKGQPREPQVYTLPPSRDELTKNQVSLTCLVKGFYPSDIAVEWESNGQPENNYKTTPPVLDSDGSFFLYSKLTVDKSRWQQGNVFSCSVMHEALHNHYTQESLSLSP
light: not shown
notes: as for B1
For B6, the Kd with FcγRIIa type R [1] stood at 400 nM; with FcγRIa it was 1 nM; with FcγRIIb [2], 19 nM. Further, the “KD(IIaR)” value in the assay with FcγRIIa type R [3] came out at 2.8 fold. For the same molecule, in the assay with FcγRIIb [4], the “KD(IIb)” value came to 160 fold.

B7: IL6R-BP479/IL6R-L (antibody, human IgG1, kappa)
heavy: QVQLQESGPGLVKPSETLSLTCAVSGHSISHDHAWSWVRQPPGEGLEWIGFISYSGITNYNPSLQGRVTISRDNSKNTLYLQMNSLRAEDTAVYYCARSLARTTAMDYWGEGTLVTVSSASTKGPSVFPLAPSSKSTSGGTAALGCLVKDYFPEPVTVSWNSGALTSGVHTFPAVLQSSGLYSLSSVVTVPSSSLGTQTYICNVNHKPSNTKVDKKVEPKSCDKTHTCPPCPAPDLLGDDSVFLFPPKPKDTLMISRTPEVTCVVIDLAEEDGEVKFNWYVDGVEVHNAKTKPREEQYNSTYRVVSVLTVLHQDWLNGKEYKCKVSNKALPAPIEKTISKAKGQPREPQVYTLPPSRDELTKNQVSLTCLVKGFYPSDIAVEWESNGQPENNYKTTPPVLDSDGSFFLYSKLTVDKSRWQQGNVFSCSVMHEALHNHYTQESLSLSP
light: not shown
notes: as for B1
As to B7, the equilibrium dissociation constant (Kd) with FcγRIIa type R [1] was determined as 900 nM; with FcγRIa it was 5.3 nM; with FcγRIIb [2] it was 56 nM. In the assay with FcγRIIa type R [3], the “KD(IIaR)” value worked out at 1.2 fold. Also, the “KD(IIb)” value with FcγRIIb [4] was found to be 55.5 fold.

B8: IL6R-BP484/IL6R-L (antibody, human IgG1, kappa)
heavy: QVQLQESGPGLVKPSETLSLTCAVSGHSISHDHAWSWVRQPPGEGLEWIGFISYSGITNYNPSLQGRVTISRDNSKNTLYLQMNSLRAEDTAVYYCARSLARTTAMDYWGEGTLVTVSSASTKGPSVFPLAPSSKSTSGGTAALGCLVKDYFPEPVTVSWNSGALTSGVHTFPAVLQSSGLYSLSSVVTVPSSSLGTQTYICNVNHKPSNTKVDKKVEPKSCDKTHTCPPCPAPDLLGDDSVFLFPPKPKDTLMISRTPEVTCVVVDVAEDDGEVKFNWYVDGVEVHNAKTKPREEQYNSTYRVVSVLTVLHQDWLNGKEYKCKVSNKALPAPIEKTISKAKGQPREPQVYTLPPSRDELTKNQVSLTCLVKGFYPSDIAVEWESNGQPENNYKTTPPVLDSDGSFFLYSKLTVDKSRWQQGNVFSCSVMHEALHNHYTQESLSLSP
light: not shown
notes: as for B1
Take B8: the Kd with FcγRIIa type R [1] worked out at 780 nM; with FcγRIa, 0.82 nM; with FcγRIIb [2] it was 46 nM. In addition, in the assay with FcγRIIa type R [3], the “KD(IIaR)” value was determined as 1.4 fold. The “KD(IIb)” value with FcγRIIb [4] was 67.8 fold.

B9: IL6R-BP269/IL6R-L (antibody, human IgG1, kappa)
heavy: QVQLQESGPGLVKPSETLSLTCAVSGHSISHDHAWSWVRQPPGEGLEWIGFISYSGITNYNPSLQGRVTISRDNSKNTLYLQMNSLRAEDTAVYYCARSLARTTAMDYWGEGTLVTVSSASTKGPSVFPLAPSSKSTSGGTAALGCLVKDYFPEPVTVSWNSGALTSGVHTFPAVLQSSGLYSLSSVVTVPSSSLGTQTYICNVNHKPSNTKVDKKVEPKSCDKTHTCPPCPAPELLGDDSVFLFPPKPKDTLMISRTPEVTCVVVDVSEEDGEVKFNWYVDGVEVHNAKTKPREEQDNSTYRVVSVLTVLHQDWLNGKEYKCKVSNKALPAPIEKTISKAKGQPREPQVYTLPPSRDELTKNQVSLTCLVKGFYPSDIAVEWESNGQPENNYKTTPPVLDSDGSFFLYSKLTVDKSRWQQGNVFSCSVMHEALHNHYTQESLSLSP
light: not shown
notes: as for B1
In the case of B9, the Kd with FcγRIIa type R [1] was 2200 nM; in the assay with FcγRIa it was 14 nM; with FcγRIIb [2], 110 nM. In addition, the “KD(IIaR)” value in the assay with FcγRIIa type R [3] was 0.5 fold. In addition, the “KD(IIb)” value with FcγRIIb [4] came to 27.4 fold.

The record behind these values is patent publication US20210261648A1 (published 2021).
